assay: soluble on expression in E. coli; label from the status in PepcDB or PDB records

| Sequence | soluble on expression in E. coli |
| --- | --- |
| MGSDKIHHHHHHMIGKIEPLGTSTGKILYNSHCQNILDLSVAETMEIFKSSGVILFRDFGVTPKQMKDFSEQFSGKHIIDFTKVSIDSDKYVNFVDGGMDGLIPHCENSCFPFRPDVIWFCCTVPAEQEGETLFWDGIRVWEELSQESKQLFLSKQLKFSYKNVPVDILKGIIGSNANTIDDIKQRLDSVDGVSYQFNDDKTVSVEYTCSSVVNNKYNHQNAFANHFWVYQKRTEEAIFDDGSRASDEVADEIERIFDKLTEKIPWKAGDLVMMDNSRFLHGRGAFTDNRRQVFTTLSNLKF | not soluble |
| MNLASQISQAKTGNATMEWAKNYVSKLNDGQLALLQKMYADHQAKLKASEDEKKKKEMEELKMKAQQQAILDSLTQQIPIMVDVLRSSTSPDSQPSSSSSVMSSTDEDQITVKDVLIGKINKAQRQSSPNSSKPYTPRGIRERVLFDEHLYVFDKCSYDSKKRFFRCERKNTCPARIHTPFDAERVIHKVQVHNHPPPTTFDLAHYNIDYGKVKSGHILSLNGPQQTKNLLPPSLLTPKSDLEDETLSTKTEQKNASTMNILLSMTNNCDGRKPITLRLPDLFNKISEMEIHDMEMTLTKFLLENRELRTDLISRNGDLPVFFPNAHNDELVLFVADQHENDSVFQMIRVSERNEKSIRQAIQEHLQKVSNRSLMMNISSKINVPLSQQMIDQWRTEEFIRLDSSKPNFWKIHHVSKLQD | not soluble |
| MQDTIFLKGMRFYGYHGALSAENEIGQIFKVDVTLKVDLSEAGRTDNVIDTVHYGEVFEEVKSIMEGKAVNLLEHLAERIANRINSQYNRVMETKVRITKENPPIPGHYDGVGIEIVRENK | soluble |
| QLPSYRFNPNNHQSEQTLCVVCMCDFESRQLLRVLPCNHEFHAKCVDKWLKANRTCPICRAD | soluble |
| MGSDKIHHHHHHMSLTNVLFLAEELRVGGAETYFYKIENKIDLKKINFYTAAVNGRCFDKLNNKHMYFEYEKGLFSKIKTIKKIVISKNINVIHANSLRLAIISSIVKKLYKKDLKIVYTKHNLTILEKIHTKLFSAFVNKNVDIVLAVCNKDRDNMISIGVSEEKVKVIPNSIDLKHFKFNSKYLRDAGKDFKVGMLSRLSKEKNHEFFLDIAEKADFRALIGGDGPLREEINNRIEKSNLKKKVKMLGNIENSYEFLSSVDVMLLVSTREIFPMTLLEAMAVGTIVISVDIGGIRDCVINDKTGYVIDDYQSEKFITKISDILSDYDKNKELISAARELVENSFNLDITIDELQRLYGEVGL | not soluble |
| MIALGIEGTAWSLSIGVVDEEGVIALENDPYIPKEGGIHPREASQHHSERLPSLLSRVFEKVDKNSIDVVAFSQGPGMGPCLRVVATAARLLAIKLEKPLVGVNHCLAHVEVGRWQTGARKPVSLYVSGGNSQVIARRGNRYRVFGETLDIGIGNALDKLARHMGLKHPGGPKIEELAKKGQKYHFLPYVVKGMDFSFSGMVTAAQRLFDSGVRMEDVAFSFQETAFAMLTEVTERALAYLDLNEVLLVGGVAANKRLQEMLRIMCEDRGAKFYVPPKELAGDNGAMIAYTGLLMYKHGHQTPVEKSYVRPDFRIEDVEVNWD | soluble |
| MRYWLMKSEPSEVSIDDLAARPGQTVPWDGVRNYQARNFMRNQMQPGDLVFFYHSSCPEPGIAGVVEVSRLAYPDETQFDSASKYFDPKSTRENPRWFNVEVRFLRKTRLLSLRELRSYPELAGMRILQKGNRLSITPVDPSEWKFIEAKLQSLEHHHHHH | not soluble |
| MGSDKIHHHHHHMTNQLLSEQWFEHQAKVTEAIGRPGFAASLFAALGVIRPIQATTVYLYPHDGMPCALFEQDDKAPWQPEGNVSRYLSGFYLLDPFYGACVEQVESGCYGLFEVAPDHFEVSEYYQSFYRHSHLEDELNYILQVAPGQSLAVSLAFTDKLDGQSRTRFGLITPWVLAVLGKHFAGLDSRAGRFENILEQRIHAALNNFGSSLLTERECRIAQLILRGHSTKSLAERLGVSEDTIKSHRKNVYAKLDIGTQSELFSLFIDALANAQGVLGKDPLESYMGKLR | not soluble |
| MRRVFSSQAIQTAIEKSLPDLQKIVGNSSVRTQESVRRQFARDESHFIAPPPAVVLEPTNVEQVSEILKLCNDRAIPVVPFGTGTGLEGGSMSTLGGICISTQQIIGDPVLREQDFVCSVKPSTTRIALNDAIKNSGLFFPVDPGADASVCGMVATSASGTNAIRYGTMKENVVNLEVVLADGTIIDTKGKGRCPRKSSAGFNFTELFVGSEGTLGIITEATVKVHPRPQFLSAAVCSFPTVHEAASTVVEVLQWNIPVARIELLDTVQIQACNSYSSLNLRESPTLFIEFHGSNEKEVADQTSAVEDICKSHEALDFDSGASPDKRATLWKARHNAYYAALAMRTGARGFTTDVCVPISKLADVISETRSDLDEHEILGTVVGHVGDGNFHVILPTIEEDKTEHRKIQSFSDRLVRRALAADGTCTGEHGIGLGKRKYLREELGENTVRLMHTIKHALDPNNIMNPGKVLPEL | soluble |
| MNVMLSKNYMMEKYNMSTTVGLPQFSHIKIEHFKSHLDALLKNHLEEIDRLLKENHHYTWDNLIYPLDSLADELERFWSPFAHMHAVMDSETIRESYEACLPLLSAYDAAIGHNQDLYEAIKSIDQHSLNPAQKKIIADSIQDFEL | not soluble |
| MKYPQVWDLDTFFKGGSQSSDFQHFVKETEELVDKLVASTSAKMTLAQLVNELVNVQKVMQRLRHGAAFVSCLKAQNVKDEHAFQWQGKLNELQAKLQNIWVELEATFGRMEDGEWQELLNHPQLSDITFSLNERRQAAAEKLAPEQEKLVAQLAVDGYHAWGEVYNQAVGRMEIPFEEDGETKRLSP | not soluble |
| MSLHAVDHHAILARFAPSRGGDGNIFRDIDPSRLAHIVVDMQNGFMEEGAPVEVPVARTIVDNINRISAAVRDAGGHNVFLRYTTPPEGGPSWSNFMVRMGREAQGHREAFTPGAHHWQLWPTLDVREADAIVDKHRFSGFTPGTCALKDVLDARGIDTVLITGTLTNCCCESTARDAMQHNYRVLMASDANAALSDEEHAATLHIMAMVFADLHSTQEVVDLLGSEGHHHHHH | soluble |
| MTQPFNFEQALKDLQSGKSLTGKDSILGPLIKQLTEAALQAELEQHLAHDPQPNRKNGKTPKTIKHPSGNFELDAPRDRNGTFEPQLIKKNQTTLTDEIERKVLSMFSIGMSYRDINQHVEDMYGLNVSNATVSAITDKLIPELKAWQQRPLDSHYPIVWLDAIHYKVKEDGRYVSKAVYTLLALNMKGKKEILGLHLSENEGANYWLSVLADLNNRGVKDILIACVDGLTGFPEAIASIFPHTETQLCVIHQIRNSMKYVASKNQKAFMADLKPVYRAVSKEAAEMALDELEAKWGDAYPLVINSWRRKWHNLSHYFKYPEHIRKVIYTTNAVEAVHRQFRKLTKTKGAFPNENSLLKLLYAGILNASDKWTMPIHNWSLCLSQLAIYFEGRLDSVLEI | not soluble |
| MLPVSCKLPNMGTYQSYLSSSMPAGCVLPVGGNFEILLHYYLLNYAKKCHQSEETMVSMIIANALLGIPKVLYKSKTGKYSFPHTYIRAVHALQTNQPLVSSQTGLESVMGKYQLLTSVLQCLTKILTIDMVITVKRHPQKVHNQDSEDELLEHHHHHH | not soluble |
| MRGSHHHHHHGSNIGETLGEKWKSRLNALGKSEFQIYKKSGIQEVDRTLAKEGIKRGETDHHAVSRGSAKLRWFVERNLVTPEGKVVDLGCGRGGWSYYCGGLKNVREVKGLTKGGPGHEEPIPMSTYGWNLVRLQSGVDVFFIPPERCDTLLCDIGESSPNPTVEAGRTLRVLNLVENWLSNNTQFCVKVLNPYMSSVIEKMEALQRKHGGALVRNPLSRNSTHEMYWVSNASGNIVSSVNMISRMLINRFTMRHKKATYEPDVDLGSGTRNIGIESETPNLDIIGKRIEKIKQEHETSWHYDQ | soluble |
| MAHHHHHHMIVASSLEVRNYGEWVRQVRAERIIVNCPDEMDVKAMCAWMKRDETKEKQAECWKEVKKHMYLLGPIPRHVFDEEAFTERCGAVKFALQSINDVTVKECFPRGGESPWCSEDPSHKPVRVVREIYEGSVILFNAPMCDCLEERTLKRLPSVAE | not soluble |
| MSKSWGKFIEEEEAEMASRRNLMIVDGTNLGFRFKHNNSKKPFASSYVSTIQSLAKSYSARTTIVLGDKGKSVFRLEHLPEYAGNRDEKYAQRTEEEKALDEQFFEYLKDAFELCKTTFPTFTIRGVEADDMAAYIVKLIGHLYDHVWLISTDGDWDTLLTDKVSRFSFTTRREYHLRDMYEHHNVDDVEQFISLKAIMGDLGDNIRGVEGIGAKRGYNIIREFGNVLDIIDQLPLPGKQKYIQNLNASEELLFRNLILVDLPTYCVDAIAAVGQDVLDKFTKDILEIAEQ | soluble |
| MNTKLPLDLFNQAKRSASQDQPALFSWVTELDELVSPVKLFKKAGTAFKGERFFWQNPEMTLTMTGFGVTKQFLAEKKKDAFLGLQEKIEKRLRTSVTNATVDATGPVYFGGFAFDPERDTEKEWQSFKDGLFYLPLFMLTNKDGKSYLTVNLSIYSDDTESKLEAVFNQWQKIIHQEVNEAEMALLTDFKEIGKDHFLETASEIIDMINHSEDVKKVVLARRMGLRFQRQVDSAIILENMLATQENSYFFLIEKGTGVFFGATPERLLAVNGDEIHSSCVAGSTERGATEEADEALGNALLKDAKNLREHSYVVQMMEETLKPFTTGLSLSSQPVLLKNRDIQHLYMNITAKKKPDVSMLEMVKALHPTPALGGLPQKMGLAIIRMKEEMDRGFYGAPIGWVDLKGSGEFAVAIRSGLIVDSQGLIYAGCGIVGDSVPKEELQETAVKFQPMLRVLGGIKK | not soluble |
| GPGSMWAQQLSLQKQTTKISPADKDAQALITANVFIEGNRMRVLKSMEQYQAVADSAYWNYGYMGGSMVTTMAICLSLSGRLPLLQRYASWISLAGGYFGGKAALGIHNARNLSHVVNTIDSAIVETRKMDEQYNFKIPDYAREVEALQRRKFELLPTSAEAIEARKNDLNNMPLDEKVDALVEAYEKRRQAVGKE | not soluble |
| MGHHHHHHSHMATASPSVFLLMVNGQVESAQFPEYDDLYCKYCFVYGQDWAPTAGLEEGISQITSKSQDVRQALVWNFPIDVTFKSTNPYGWPQIVLSVYGPDVFGNDVVRGYGAVHVPFSPGRHKRTIPMFVPESTSKLQKFTSLCLVASSDLQAAPPTEDK | not soluble |
| MDSEQINVNLDIGAKAVMLARRAAAAKLNNEKLPEVPDDPIFHEKHGVFTTINTYPDNQLRGCIGFPEPYYELGEGIIKSSIYAATDDPRFDPMEPDELNRVTFELSILTVPQEVTVNPEERPKAITVGKDGIIAVYNGASGLLLPQVATEYRMSAEEFLEALCEKAGLWQGCWKYKKVKISKFQAIVFGEIEPNGKVEQRAAALEHHHHHH | soluble |
| MNCMWCDSTEAKESLNTVYWELPDGTKAIEIQETPCISCSSCGMDYQSDHTVKEIEDQLFLIYTKDLPKQLTYEELMGRPRLLKRNYFDF | not soluble |
| MVVKFTKSEALHKEALEHIVGGVNSPSRSFKAVGGGAPIAMERGKGAYFWDVDGNKYIDYLAAYGPIITGHAHPHITKAITTAAENGVLYGTPTALEVKFAKMLKEAMPALDKVRFVNSGTEAVMTTIRVARAYTGRTKIMKFAGCYHGHSDLVLVAAGSGPSTLGTPDSAGVPQSIAQEVITVPFNNVETLKEALDKWGHEVAAILVEPIVGNFGIVEPKPGFLEKVNELVHEAGALVIYDEVITAFRFMYGGAQDLLGVTPDLTALGKVIGGGLPIGAYGGKKEIMEQVAPLGPAYQAGTMAGNPASMASGIACLEVLQQEGLYEKLDELGAMLEKGILEQAAKHNIDITLNRLKGALTVYFTTNTIEDYDAAQDTDGEMFGKFFKLMLQEGVNLAPSKYEAWFLTTEHTKEDIEYTIEAVGRAFAALADNK | not soluble |

From the DeepSol protein solubility set
